Measured values from the domain aggregation screens of Martell et al. (2025).

Test: soluble fraction after stress (log2 fold change); higher = more stays soluble; pooled small domains, quantitative proteomics
Conditions: stress: 50 degC
Method in brief: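 Pooled custom libraries of small protein domains were each held under stress at 50°C. The read-out, high-throughput quantitative proteomics, tracked how much of each protein stayed soluble. This is reported as a base-two log fold change used to indicate aggregation propensity. Higher values mean more protein remains in solution.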

HMNLDPIKRKSEILSLFESHKNVKFNEIFFEKVNKEFTVLTFLIILELVKDNIIDFSQTQEGLIEFFTR
soluble fraction (log2): -0.115

HMFSIDRNIRRLRKEAGLTQEELAQKLFVTRQTISLWELGKVHPDLETLQKLAEQFQVDLLQVLYGPE
soluble fraction (log2): -2.17

HMAEVDDESIKLYDGGYQSNTTKSRLNALLSEFGYDTEHVFQKQFEWFISIFDLTEKAMRTVPFSNGMRL
soluble fraction (log2): -0.0834

HMIVDINDVRIDKYIADNTDYSRNLILNLIKNGDILVNDSKIKPSYKVKQGDKITINNVKTD
soluble fraction (log2): 0.227

HMNAEGLIGREAVALTAVDAHGGRVRLGGEEWSARLSKENGGVSRLSVGDPVRVTDIDGAIAVVAP
soluble fraction (log2): 0.187

HMKKRDAEIMLQREFKLTEAIAMVRDRDIQELLPIALYFKVNINQPTAEIRYNLLNIAKSKTQEFIEAFD
soluble fraction (log2): -1.96

HMENITTILRSIKNEIKKNSTFVGDDFVNQARSMNQGQIKEKSIYGHGTKKEIEELRDEGVDVLNIPWIT
soluble fraction (log2): -0.162

HMLINIKTNSAVNVRSGPGMGFEVVNTYPSGYILQAKEMQKDGGDNVWYKVKDGWLSANYTIDI
soluble fraction (log2): -0.198

HMAGFGDSLEKMSDAVEALKLLMSTEDARNDQNIQKIARELKDVFNKYRTHLRKSYPDQYDRIKSTL
soluble fraction (log2): -0.299

HMSKPILSFVDPEKDPSHYVKRYITEETYKDWFSEHFPDYTLYEGIGITQEEYRNIVNELTKP
soluble fraction (log2): -0.493

HMNNIIYLIANKLDVGKRLDQFITIRTEFSRQRVINLIEDGYVKLNNKIINLKKYKIKGDEKIEITIPEIR
soluble fraction (log2): -0.542

HMSTVTEVHYIAFKNGRIVDIKAALTGSAVTATSIKEQPKIENYNYTTSEVRDGILYHTYAPVA
soluble fraction (log2): -1.32

HMNLNIGNNIKNIRKSKNMTQTDFAELMGLSRSYIGDLENNRSNPSIKTLEAIARALDVPIVALIN
soluble fraction (log2): -0.399

HMFKDVTVPSVINKTEAEATNMLKGLNLVVSVEYEENANKSDGIVTAQNVNANKVIKEGETVTITVNKQP
soluble fraction (log2): 0.00765

HMAPFVIQQGQDVRLISKGPGFAVSNDGKALTNAAEGQLARARTANGQTVSGIARQGGIIEIA
soluble fraction (log2): 0.00455

HMTVTTDITQYFLQENGLLNGPNARQLRQKIGETLNIGYTNGKQLLKRAQQFGLTRDQILTALKK
soluble fraction (log2): -0.481

HMNDIVKIYTTHRIINIEGLAKNEPIMLYTINGTLIDKSVSSNGSAQLHVKGIGVYLVKWANNIVKVIVPN
soluble fraction (log2): -2.42

HMEETLLLRESVRSALAMLAPTLRITLEMYVYRQLSPTEIALRSGVSISMVRRRLGYGLYKLRTQLIDA
soluble fraction (log2): -0.138

HMKHMTMYEAAKIAKEVGAPKLWLTHYSPSMTRPEEFMDDVRKIFPAAYAAKDGWTMELNFDEG
soluble fraction (log2): -0.493

HMVAGPDEPLSDREQGVLDLLAEGLSNKAISKQLGISVATVKSHLSNIYGKLQAENRMQAVARARELGLM
soluble fraction (log2): ≥ 0.62

HMTAPELGIRQDGNTLVIFWPSSVTGYVLKSADAVDTPPASWTSVTHTTVGDEHRAEITPTGNSRFFRLV
soluble fraction (log2): -0.267

HMSEQLVGTVGHITVGTARTASPAEAKFLDAFEQPHYLLVEPIEPKDIFQQGDKVVLVKKQHHSWLATRYI
soluble fraction (log2): -0.267

HMLYEDVQVPNVRYWKSRDAKKQLEDLGLRVLTEHVNDAYIQSDQVIRTSPEIGDTLRTGDTVTLYVSDG
soluble fraction (log2): 0.185

HMKTIQVGSTVRVNQGAKTYSGGGLASFVYKRNHKVSQLQGDRAVITYEGTVVAAVHVSDLSLIH
soluble fraction (log2): -0.062

HMKTPETSEYVVQAGDSLRRILTERYGAKEQDLPYLYRQFRLLNPKVSSLDNIHAGTKVRIPLVASVL
soluble fraction (log2): 0.132

HMGKNISEEDMLGYFKKIDLDYDAETKEVIAPTFRHDLFRLADLAEEVARFFGYDNIPTTLPSGEAT
soluble fraction (log2): 0.0416

HMETAESLLRRLIMLEDPAMQNAMYVLAVMLERGKQLVERAAKPHESGGILRVYEHKKSGDTFVVLDPR
soluble fraction (log2): -0.511

HMLRQRVFRIIQNNINSKNYFVYTKQILAELAGISMRSLNRTLSELQNDRLIIVDSGTIRLFT
soluble fraction (log2): -1.49

HMDGASLLDIDGDGKVTPTIDGLLLMRWQFGTRGAALIGGISFPAGALRTTVNAIELHMRRLSETT
soluble fraction (log2): -0.844

HMGSIGAMLSSPELYGKLATNPATRGFLSQPDFIAMLTDVQKNPDKFGSYMSDPRMMQVLSVALG
soluble fraction (log2): 0.118

HMETYSGVERAAILVMYLERTLAKALLDHMNDEEVRRVGMAMASIDRVEGPDIERIVGDFVRELYEVS
soluble fraction (log2): -0.793

HMELSVTDRTRQIRHILKEKGRVEFTSLFEELTKPYVIVTFLSVLEMSKNNELMITQDKTFGSITLEMKG
soluble fraction (log2): -0.569

HMNNQVTFSKFLNEVEDGRVVEVNIQGNNITGVLSDGSKFKTFSPNYPNLVEKLSEKGVSINASPL
soluble fraction (log2): 0.1

HMGEAIPVPDLKHKALTDAEHLVHELGLEIQVVDTGYVKSLPADYILGQSLAPGEKVKSGHIIYVTINSP
soluble fraction (log2): -0.0167

HMVTVQEGETLSAIAARSGVSVKDLVRANEIRNPDSIQEGQVLFVP
soluble fraction (log2): 0.0612

HMKDMKISTKNLLQELAKNYPDQTSFRKNVIETTARAMGYTGKDFYPLLTTDNRVKIGTYDLATFLRSI
soluble fraction (log2): -0.718

HMEGGLIMDRIEKGLQSGVMPDLRGLNLKDALYLLESYVQVQVIGSGGVIKQSIKTGDKFIMGSVIKLEL
soluble fraction (log2): -0.0813

HMALHDTLSYEEYLDLGLNGKADSAEKRELVAHALHLGRPNAKTLYKRLNMLQLNRKDVAALLEQ
soluble fraction (log2): 0.0249

HMKKRDANSQGTRLILFYMLQRLHTEYKLQGFVTYNQRRSFREIYDAYHALGGNGFGTAMWEEVKELDLK
soluble fraction (log2): -1.43

HMFTLDIGTIIRNRRLELNLTLEEIGNAVGVSKSTVQKWENGFISNMKRDKISALAKVLNINPVTLITGEY
soluble fraction (log2): -1.12

HMKTMTTIRKGSRGDTVATLQRKLNLIADGIFGPITDEAVRDFQKSHGLAVDGIVGPKTWAALGVGS
soluble fraction (log2): 0.0423

HMLSVKEQTYQIIKEKILNQEYPAGARININELAEELGISNSPIREALSLLEQQGLVISNRSSGATVT
soluble fraction (log2): 0.00507

HMTSKVTVLAVNGRITVSGKEQDETVSVYDTGGRLLYQGESDVINVPRKAMYIVTVSRKSYKVIV
soluble fraction (log2): -0.941

HMGTKRWELPRRVQQMATQHGKSISTAAAEELVSRSGENTRMLDNDLVKLAQMVEAPQIELADVERWIVR
soluble fraction (log2): 0.221

HMTPFVINVDRHGAVIINEKTVDIDEAVVLARQERSQGKSILLAGDKKAPYEAIIRVLDALKQAG
soluble fraction (log2): -0.185

HMTPATVVIPKVAGQTVAEAKETLKNANFEIGEEKDESSDTVEEGRVIRTDPESGTNRKEGTKINLIVSS
soluble fraction (log2): -0.0325

HMESYTEEMLEKMSVSKLRTIARELQVDNMTREQIRFGKKTELIQNILEFTGREIENMQLYDK
soluble fraction (log2): -0.134

HMRMTTEQLMSFLKQHFPQVADNFTVRISDEGRLSVEMPVNDKHLRPGGTVSGPSMFALADVAFYLAILQ
soluble fraction (log2): -1.16

HMEEQELQLIQFPIASGSAWAGKAVRELILPPETLLVMLIRGTETMIPKGDTMVQEGDTAVLSASAYRDD
soluble fraction (log2): -0.434

HMKLTALWTANPKISAPIYSEPSTQSKTLGRIYQGASVKVYSFDPEWAYINSSGVVGYVLRRHLE
soluble fraction (log2): -0.323

HMRPQIAIDAIQALSLIMRTENKEDPTYLESRRVVSDAVAKRLSLNPTDLNRAWSRAPRDHQIAVLSALTQ
soluble fraction (log2): -0.853

HMSRAHTELEEKLLTMLEENDMTLPMRVISNIASRIEGIIIPEEKILEVLKKSYDRYREHQMD
soluble fraction (log2): 0.0257

HMDIFFEKIFNILIGYNQNQENLISEKSILNFHLSHKSNSNFEYIPDEKTPKYIWKYLSNYNLLE
soluble fraction (log2): -0.359

HMDTNELIDRYVNEVGQHLPRKTRADIEMELRSLLLDTLEEQSGGEPTPKMAAEVLREFGHPEEIAAQYH
soluble fraction (log2): -0.0557

HMGDKVLIQTAQRLKKDLPFASIVSRFGGDEFLIFLPGISSTERVETIVKKTVFLFIAISTTLF
soluble fraction (log2): -0.124

HMDDEDLAFLQREFVSYQQAMDYYGLGYKPVVRLSHISGSVYKIGKKVLIRRNIFEEYLRNHV
soluble fraction (log2): -0.00496

HMIIIMKKSATNSEVRKVIERAEKEGLTVQVNQLEKQQVLGLVGDTRLIQDVAFLRYEGVENVERI
soluble fraction (log2): -0.776

HMSMFSEILRTLRKAKGLTQRELAGHLGVTQQMVAKWEKGQSTPGPDQLTRMAELLEVSTDTLLGR
soluble fraction (log2): -0.162

HMKQLNKRQNDILSFAEKQGYVSVENLAKLFSVTQQTIRRDINYLSDNELLVRTHGGAYYSS
soluble fraction (log2): -0.902

HMREEMYGLIGFITTSEVTDTFGQMEIKLENEPEMRINVRTNPGESLARGDAAKIISFNNSNGTFLVELTK
soluble fraction (log2): -0.474

HMANFGSILRNLRISRDITQSELAAKLGVSRSTVGMYETGAREPDFEAMEAIADTFNVDMDYLVGRSQ
soluble fraction (log2): -0.28

HMGTELSYSEFLNKVEAGEVTNVTIRGPEITFQTGNSSYTTYAPDDPKLIEHLTAKGVAIKAGP
soluble fraction (log2): 0.216

HMSYYKEMIRLADSIADKAHEGQTDRNGWPYISHPRRVALGARKLVSEMASSTSPDTSLEELKAEVQIVAL
soluble fraction (log2): -0.288

HMVPEMIRDVISKSIRDMGVLPDHMQINERIALIQSLKKQQILGIKGAVAETARQLGISVPTVYRYMKKG
soluble fraction (log2): -0.362

HMWMEKEELLWNDIIRGGVERGELREDTDIQEAAALFRQVFIGLAYQMSFSDGLDVGILRKRFHHIYGLLT
soluble fraction (log2): 0.0187

HMSAPGYRAVYPGMLESERQTAYELLSSSGFDVKINTSSGELEVTTDRYHEARMVMASQNIPK
soluble fraction (log2): 0.0432

HMRKTLASTAYDSIKAGIVSGEINNNLLLSENTLAKILNMSRTPIREAIKRLEAESYLKSVDGVGLIVQE
soluble fraction (log2): -0.211

HMKIIDDIQEFAGVTKTQNTFFHIFNHLHQNGKQLILTSDRAPVMLQGMEERLLTRFKWGLVAELE
soluble fraction (log2): 0.257

HMTKGFSIQDISLSKSTMTFLQQNKITDLASLLSMSKSQIEGMKGFKPKMIQEIEKNLDKVGLVLAQD
soluble fraction (log2): 0.176

HMQETPAMLAMKELPTEDEQRIYMMLQEDYDSVLLVKTIRNAFSQNPQLTRQQLLPIILTWLMT
soluble fraction (log2): -1.14

HMAQFNELLFELRQDRKMTQEDLAKVLFVTSGTISNYENGVHLPDIEKLISLADFFGVTTDYLLG
soluble fraction (log2): -0.104

HMGITDHIYQDLKKRLENGNYPAGTRFPSESTLADEFSVNKMTMNKIVSMLAEQGYLIRGNRGAGTRVAEN
soluble fraction (log2): -0.0862

HMAGWIPVEERLPDDLTNPITRDAYVYPVTVDLGDVTDIRYYSFWRGHWYNQGPETMDDLVIAWMLLPEPY
soluble fraction (log2): -0.0981

HMGGNDALEIAKSNPQVIEVLGEPVTKDGMGSYSVNYKNGHKTSEATIPIEGPNGTATLHVKTSGSDDAL
soluble fraction (log2): 0.261

HMNNKVAVKSGYYFEIFNKEEIPTTLAKTKQKVKINNIQYDLYQGMSLDDERKIDDMFGDRMGYSIDDY
soluble fraction (log2): -1.04

HMNTWVEIFRAEDQGQIRDASLVLLAVKVAHRVDMNSSSAPWSLMVPAQDQQRAHHELTTYWQENAH
soluble fraction (log2): -1.43
